This is an account of results in paper PMC5827449, “Structural analysis of group II chitinase (ChtII) catalysis completes the puzzle of chitin hydrolysis in insects” (The Journal of Biological Chemistry, 2018).

Substrate in data set [1]: CC(=O)N[C@H]1[C@H](Oc2ccc3c(C)cc(=O)oc3c2)O[C@H](CO)[C@@H](O[C@@H]2O[C@H](CO)[C@@H](O)[C@H](O)[C@H]2NC(C)=O)[C@@H]1O
As to the kind of experiment: fluorescence of released 4-methylumbelliferone. It is filed as biochemical, Ostrinia furnacalis. As to conditions: pH 6.0, 20 mM sodium phosphate, 303 K, 20 min, 30.0 °C. The text has this:
fluorescence of released 4-methylumbelliferone on OfChtII-C2

Substrate in data set [2]: CC(=O)N[C@H]1[C@H](Oc2ccc3c(C)cc(=O)oc3c2)O[C@H](CO)[C@@H](O[C@@H]2O[C@H](CO)[C@@H](O)[C@H](O)[C@H]2NC(C)=O)[C@@H]1O
In words: fluorescence of released 4-methylumbelliferone. Type of data set: biochemical, Ostrinia furnacalis. Conditions: pH 6.0, 20 mM sodium phosphate, 303 K, 20 min, 30.0 °C. An excerpt:
fluorescence of released 4-methylumbelliferone on OfChi-h
This is another data set of the same source.

B1: OfChtII-C2 (Ostrinia furnacalis) (protein)
chain: ERFKVVCYYTNWAWYRPDNGKYTPGDINPELCTHIIYAFAVLDKEELVIKSHDIWLDVENKFYEKVTALKSHGVKVLLGLGGWDDSAGDKYSRLVNNVSARRKFVVHAVDFLEQYGFDGLDLDWEYPKCWQVECEKGPDSDKQGFADLVKELRKAFNRRGMLLSAAVSASKRVIDYAYNVPALSMNLDWISLMTYDYHGQWDKKTGHVAPMYVHDKDTDNTFNVNFTVNYWINKGADRKKLVVGVPFYGQSFSVVEGAGTGLGAPTYAGGEAGDETRARGFLSFYEICERVKVKGWKVHRDPGGRIGPYATHDDQWVSFDDDFMARHKAEYVRAMELGGSMAWSLDLDDFTGKYCGCGKAPLLTTINHVLRGKEAPPPCIL
notes: single GH18 catalytic domain C2 (barrel 2059-2301 and 2377-2426); His-tag purified from Pichia pastoris GS115
In the case of B1, in data set [1], the Km is 11.93 ± 0.50 µM, the kcat is 0.2037 ± 0.0025 s⁻¹ and the kcat/Km came to 17000 M⁻¹ s⁻¹.

B2: OfChi-h (Ostrinia furnacalis) (protein)
chain: APPGKPSLGWGERTFAIVEVNQAATAYNQLVTKRDSADVSVTWNVWSGDPADKARVLLNDKEFWSGTGGAAGSASFKVKKGGRYQMVVELCNADGCSQSDATEIIVADTDGSHLPPLDYNMGEKNKPFKQTSGKVVGAYFVEWGVYPRKFPVDRVPIPNLTHLLYGFIPICGGDGINDSLKEIEGSFQALQRSCSGREDFKVSIHDPWAALQKPQKGLSSWNEPYKGNFGQLMMLKQAKPDLKILPSIGGWTLADPFFFFTDETKRRRFVASVKDFLQTWKFFDGVDIDWEFPGGKGANPNLGSPKDGEIYVLLMKELREMLNELSAETGRKYELTSAISAGWDKIQVVDYSAAQKYMDHIFFMSYDFKGAWSNDTLGHQASLYAPDWNEKETYTTDFGVQFLLAQGVSPKKIVVGVAMYGRGWTGVHGYKDNNPFTGNATGPVKGTWQDGVVDYREIATEIAQGKWEYHYDKVAQAPYVFRPATGDLITYDDARSTIEKGKYVRANKLGGLFAWEIDADNGDILNAMNMGLGNSA
As for B2, in data set [2], the Km came out at 7.32 ± 0.35 µM, the kcat was determined as 3.1378 ± 0.0885 s⁻¹ and the kcat/Km turned out to be 429000 M⁻¹ s⁻¹.

By Km is commonly meant the substrate concentration at which the rate is half of its maximum. Broadly, the kcat is the number of substrate molecules converted per active site and unit of time at saturation. For orientation: kcat/Km means the turnover number divided by the Michaelis constant.
